Assays:
[1] = target: T1, aromatic amino acid decarboxylase (AADC), wild-type (Homo sapiens, UniProt P20711); experiment: CD thermal denaturation at […] nm ([…] to […] °C); DLS of cDopa-bound form; assay type: binding
T1 construct: gene DDC
T1 sequence (P20711 1-480): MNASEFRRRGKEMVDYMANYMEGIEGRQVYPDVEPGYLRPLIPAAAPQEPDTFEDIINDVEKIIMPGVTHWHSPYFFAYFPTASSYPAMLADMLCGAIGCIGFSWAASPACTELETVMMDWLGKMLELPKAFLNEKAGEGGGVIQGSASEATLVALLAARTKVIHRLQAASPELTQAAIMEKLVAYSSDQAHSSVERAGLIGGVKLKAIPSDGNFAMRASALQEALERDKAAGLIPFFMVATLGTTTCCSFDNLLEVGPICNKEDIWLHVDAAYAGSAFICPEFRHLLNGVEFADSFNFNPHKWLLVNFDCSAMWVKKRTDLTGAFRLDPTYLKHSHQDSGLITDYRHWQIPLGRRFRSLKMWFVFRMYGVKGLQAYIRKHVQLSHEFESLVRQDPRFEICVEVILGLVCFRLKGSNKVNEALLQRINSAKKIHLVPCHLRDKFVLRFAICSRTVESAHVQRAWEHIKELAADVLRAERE

[2] = target: T2, aromatic amino acid decarboxylase (AADC), P330L variant (Homo sapiens, UniProt P20711, P330L); experiment: CD thermal denaturation at […] nm ([…] to […] °C) of cDopa-bound form; assay type: binding
T2 construct: gene DDC
T2 sequence (P20711 1-480 P330L): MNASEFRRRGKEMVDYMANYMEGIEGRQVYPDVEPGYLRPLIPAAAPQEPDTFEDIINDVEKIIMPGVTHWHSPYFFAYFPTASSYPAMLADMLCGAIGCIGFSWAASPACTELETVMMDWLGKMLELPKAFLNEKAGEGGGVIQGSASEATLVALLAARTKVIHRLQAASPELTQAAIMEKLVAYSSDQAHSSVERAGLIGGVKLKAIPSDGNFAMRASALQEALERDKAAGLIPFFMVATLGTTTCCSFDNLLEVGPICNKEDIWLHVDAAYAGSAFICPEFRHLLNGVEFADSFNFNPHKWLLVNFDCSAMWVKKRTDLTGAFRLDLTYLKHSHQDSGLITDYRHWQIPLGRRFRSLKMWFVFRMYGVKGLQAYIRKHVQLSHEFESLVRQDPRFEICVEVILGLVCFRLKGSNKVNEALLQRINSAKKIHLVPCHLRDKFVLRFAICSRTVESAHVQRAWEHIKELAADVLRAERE

[3] = target: T1, aromatic amino acid decarboxylase (AADC), wild-type; experiment: intrinsic fluorescence quenching titration of apoenzyme (KD(PLP)); assay type: binding
[4] = target: T2, aromatic amino acid decarboxylase (AADC), P330L variant; experiment: as above; assay type: binding
[5] = substrate: N[C@@H](Cc1ccc(O)c(O)c1)C(=O)O; experiment: purified protein; conditions: PLP active site; external aldimine with PLP; pH 7.4; 25.0 °C
[6] = substrate: N[C@@H](Cc1c[nH]c2ccc(O)cc12)C(=O)O; experiment: purified protein; assay type: biochemical, Homo sapiens; conditions: pH 7.4; 25.0 °C

C[C@@](Cc1ccc(O)c(O)c1)(NN)C(=O)O [cDopa, carbiDopa]
WT (°C) [1]: 68.9 ± 0.4 °C | P330L (°C) [2]: 69.9 ± 0.3 °C

Cc1ncc(COP(=O)(O)O)c(C=O)c1O [PLP, pyridoxal 5'-phosphate]
Kd [3]: 101 ± 10 nM | Kd [4]: 123 ± 19 nM

B1: aromatic amino acid decarboxylase (AADC), wild-type (Homo sapiens) (protein)
chain: MNASEFRRRGKEMVDYMANYMEGIEGRQVYPDVEPGYLRPLIPAAAPQEPDTFEDIINDVEKIIMPGVTHWHSPYFFAYFPTASSYPAMLADMLCGAIGCIGFSWAASPACTELETVMMDWLGKMLELPKAFLNEKAGEGGGVIQGSASEATLVALLAARTKVIHRLQAASPELTQAAIMEKLVAYSSDQAHSSVERAGLIGGVKLKAIPSDGNFAMRASALQEALERDKAAGLIPFFMVATLGTTTCCSFDNLLEVGPICNKEDIWLHVDAAYAGSAFICPEFRHLLNGVEFADSFNFNPHKWLLVNFDCSAMWVKKRTDLTGAFRLDPTYLKHSHQDSGLITDYRHWQIPLGRRFRSLKMWFVFRMYGVKGLQAYIRKHVQLSHEFESLVRQDPRFEICVEVILGLVCFRLKGSNKVNEALLQRINSAKKIHLVPCHLRDKFVLRFAICSRTVESAHVQRAWEHIKELAADVLRAERE
Km [5]: 16 ± 1 µM | kcat [5]: 5.5 s⁻¹ | kcat/Km [5]: 344000 M⁻¹ s⁻¹ | Km [6]: 9 ± 1 µM | kcat [6]: 0.56 ± 0.02 s⁻¹ | kcat/Km [6]: 62000 ± 7000 M⁻¹ s⁻¹

B2: aromatic amino acid decarboxylase (AADC), P330L variant (Homo sapiens; P330L) (protein)
chain: MNASEFRRRGKEMVDYMANYMEGIEGRQVYPDVEPGYLRPLIPAAAPQEPDTFEDIINDVEKIIMPGVTHWHSPYFFAYFPTASSYPAMLADMLCGAIGCIGFSWAASPACTELETVMMDWLGKMLELPKAFLNEKAGEGGGVIQGSASEATLVALLAARTKVIHRLQAASPELTQAAIMEKLVAYSSDQAHSSVERAGLIGGVKLKAIPSDGNFAMRASALQEALERDKAAGLIPFFMVATLGTTTCCSFDNLLEVGPICNKEDIWLHVDAAYAGSAFICPEFRHLLNGVEFADSFNFNPHKWLLVNFDCSAMWVKKRTDLTGAFRLDLTYLKHSHQDSGLITDYRHWQIPLGRRFRSLKMWFVFRMYGVKGLQAYIRKHVQLSHEFESLVRQDPRFEICVEVILGLVCFRLKGSNKVNEALLQRINSAKKIHLVPCHLRDKFVLRFAICSRTVESAHVQRAWEHIKELAADVLRAERE
Km [5]: 57 ± 2 µM | kcat [5]: 0.0291 s⁻¹ | kcat/Km [5]: 510 M⁻¹ s⁻¹ | Km [6]: 29 ± 3 µM | kcat [6]: 0.0092 ± 0.0003 s⁻¹ | kcat/Km [6]: 320 ± 30 M⁻¹ s⁻¹

Source: article PMC9121088, “The novel P330L pathogenic variant of aromatic amino acid decarboxylase maps on the catalytic flexible loop underlying its crucial role” (Cellular and Molecular Life Sciences: CMLS, 2022)
